Data published in the nanobody polyreactivity screen of Harvey et al. (2022).

Test: yeast display, Sf9 membrane polyspecificity reagent, FACS + sequencing; frameworks hold sequencing errors
How it was run: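 Galactose induction of a Saccharomyces cerevisiae BJ5465 synthetic nanobody display library ran 36–48 hours. The cells were then stained for 1 hour at 4 °C with 10% biotinylated, detergent-solubilized Sf9 membrane reagent, pulled down on streptavidin microbeads and FACS-sorted into low and high (top ~1%) gates on expression and reagent-binding fluorescence. Labels for polyreactivity follow the gate of origin.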

Sequence | polyreactivity (PSR sort gate)
QVQHVESGGGLVQAGGSLRLSCAATGRTFVYYAMGWYRQPPRKESELVASISSVGTTKYADSVKGRFTISRDNAKNTVYLQMNSLKPEDTAVYYCNNADDYSTVEFDYWGQGTQVTVSS | low polyreactivity
QVQHVESGGGLVQAGGSLRLSCASSGFIFYKYVMGWYRQAPGKERELVAAINWSGGSTYYADSVKGRFTISRDNAKNTVYLQMNSLKPDVTAVYYCAALSQYRYDYWGQGTQVTVSS | high polyreactivity
QVQHVESGGGLVQAGGSLRLSCASSGRIFSDYAMGWYRPAPGKERELVAAISRSGTRTYYADSVKGRFTISRDNAKNTVYFQMISLKPEDTAVYYCAAKTQSGRAGQEEDYWGQGTQVTVSS | high polyreactivity
QVQHVESGGGLVQAGGSLRLSCPASGLTVGGYAMGWYRQAPGKERELVAAISLSGGRTYYADSVKGRFTISRDIPMITVYLLMNSLKPEVSAVYYCAASILVVYLREDYWGQGTQVTVSS | high polyreactivity
QVQHVESGGGLVQAGGSLRLSCSASGITFGYYAMGWYRQAPGKERELVAAIRSSGGSTYYADSVKGRFTISRDNAKNTVYLQMKSLKPEDTAVYYCNARYRKSSRPGYEPFERYYWGQGTQVTVSS | high polyreactivity
QVQHVESGGGLVQAGGSLRLSCSASGITLPGSAIGWYRQAAGKVREFVAAISTSGGSTYYADSVKGRFTISRDYAKNTVYLQMNSLKPEDTAVYYCNARLVYYSYEEMDYWGQGTQVTVSS | low polyreactivity
QVQHVESGGGLVQAGGSLRLSSAASGFTFSRNAMGWYRQAPGKERELVAAIDSGGSTDYADSVKGRFTISRDNAKNTVYLQMNSLKPEDTAVYYCNVDGYYLFVRGYEYWGQGTQLTVSS | low polyreactivity
QVQHVESGGGLVQAGGSLRLSSAASGNTINSNAMGWYRQSPGKEREFVAAISGSGSSTYYADSVKGRFTISRDYAKNTVYLQMNSLNPEDTAVYYCAARWGYFGSFDYWGQGTQVTVSS | high polyreactivity
QVQHVESGGGLVQAGGSLRLSSAASGRTFFRSAMGWYRQAPGKERELVAAISSRGGSTYYADSVKGRFTISRDNAKNTVYLHMNSLKPEDTAVYYCNAAAFINFILYDYWGQGTQVTVSA | high polyreactivity
QVQHVESGGGLVQAGGSLRLSSAASGRTYWPNAMGWYRQAPGKERELVAAISSGGSTNYADSVKGSFTISRDNAKNTVYLQMNSLKPEDTAVYFWSADGQGDKYDYYGHNYWGQGTHVTVSS | low polyreactivity
QVQHVESGGGLVQAGGSLRLSSAASGSIIGYYAMGWYRQAHGKERELVAAITWSGGRTYYADSVKGRFTISRDNAKNTVYFQMNSLKPEDTAVYYSNAANSRSAYYNWGHGTQVTVSS | high polyreactivity
QVQHVESGGGLVQAGGSQRLSCAASGSTLYYNAMGWYRQAPGKEREFVAGISSSGGRTYYADSVKGRFTISRDNAKNTVYLQMNSLKPEDTAVYYCARVGAIPSRYGYWGQGTQVTVSS | high polyreactivity
QVQHVESGGGLVQAGRSLRLSCAASGSIFRDNDMGWYRQATGKEREFVAAINWSGVSTYYADSVKGRFTISRDNAKNTVYLQMNSLKPEDTAVSYCAAGYLKWRRYNYWGQGTQVTVSS | high polyreactivity
QVQHVESGGGLVQAGRSLRLSCAASGSIVGNNAMGWYRQAPGKERELVAVITDGGNTYYADSVKGRFTISRDNAKNTVYLEMNSLKPEDTAVYYCNADWWGDSDYWGQGTQVTVSS | low polyreactivity
QVQHVESGGGLVQAGRSLRLSCAATGRTFGSNAMGWYRQAPGKERELVAAISLRGGRTYYADSVKGRFTISRDNAKNTVYLQMNSLKPEDTAVYYCNAVHYLYGARSRLTYDYWGQGTQVTVSS | high polyreactivity
QVQHVESGGGLVQARGSLRLSCAASASIYPSYAMGWYRQAPGKERELVAVINSGGSTYYADSVKGRFTISRDNAKNTVYLQMNILNPEDTAGYYCAAYRRRYPRFDYWGPGTQVTVSS | high polyreactivity
QVQHVESGGGLVQARGSLRLSCAASGSIFFNTMGWYSQAPGKERELVAAITWSGGRTYYADSVKGRFTISRDNAKNTVYLQMNSLKPEDTAVYYCAKDQGSWRYDYWGLGTQVTVSS | low polyreactivity
QVQHVESGGGLVQARGSLRLSCSASGGTFSVYPMGWSRQAPVKERELLADISWSDASTYYADSVKGRFTISRDNAKNTVYLQMNSLKPEDTAVYYCAVSRQSGKGGSKELNDYWVQGTQVTVSS | low polyreactivity
QVQHVESGGGLVQAVGSLRLSCAASGIIFPRTAMGWYGQAPGKERELVAGISRSGGSTSYADSVKGRFTISRDNAKNTVYLQMNSRKPEDTAVYYCATRGHPFKKSYGSWGQGTQVTVSS | high polyreactivity
QVQHVESGGGLVQAVGSLRLSCSASGITFHYYTMGWYRQAPGKEREFVAAISKSGGRTYYADSVKGRFTISRDKAKNTVYLQMNSLKPEDTAVYYCAGLYYFNGDYWGEGTQVTVSS | high polyreactivity
QVQHVESGGGLVQEGGILRLSCAASGFTYRTYAMGWSRQAPGQESELVADISGSGGSTYYADSVKGRFTISRDNAKNTVYLQMNSQKPEDTAVFYCAADDASWSNLGYEYWGQGTQVTVSS | high polyreactivity
QVQHVESGGGLVQEGGSLRLSCAASARTFPFYAMGWYRQATGKERELVAAITRSDDSPYYADSVKGRFTFSRDNAKNTVYVQMHSLKPEDIAVYYCAADVEGLTVESHVYRVGFDYCGQGTQVTVSS | low polyreactivity

Sequence | polyreactivity (PSR sort gate)
QVQHVESGGRLVQAGGILRLSCAASGRIFQSNAMGWYRQTPGKERELVAGITKRGGSTYYADSVKGRFTISLDYAKNTVYLQMNSLTPEDTAVYYCAKSWSYDPRYGSWGQGTQVTVSS | high polyreactivity
QVQHVESGGVLVQAGGSLRLSCAASGSTFGGYAMGWYRQAPGKERELVASISRRGGSTYYADSVKGRFTLSRDNAKNTFYFHMNSLKPEDTAVYYCNAAFLRQVWDGYNYWGQGSQVTVSS | high polyreactivity
QVQHVESGRCLFQAGGSLRLSCAASGSTFYNNALGWYRQAPGKERELVAVITDSGGRTYYADSVKGRFTISRDNAKNSVKLQMNSLKPEDCAVYYCAADIGYDVYNDYDYWGQGTQVTVSS | low polyreactivity
QVQHVESGRGLVQAGGSLRLSCAASGITFNQYAMGWYRQAPGKERELVAGISYSGGSTYYADSVKGRFTISRDNAKNTVYFQMISLKPEDTAVYYCAKRSPFTLDYWGQGTQVTVSS | high polyreactivity
QVQHVESGRGLVQAGGSLRLSCAASGRIFQYYTMGRYRQAPGKERELVAAISRSGSSTYYADSVKGRFTISRDNAKNTVYLQMNSLKPEDTAVYYCAAVSEYYKGYDYWGQGTQVTVSS | high polyreactivity
QVQHVESGVGLVQAGGSLRLSCAASGSTFVPYAMGWYRQAPGKDRELVAAISSAGSTNYADSVKGRFTISRDNAKNTVYLQMNSLKPEDTAVYYCARDIQDTYEFDYWGQGTQVTVSS | low polyreactivity
QVQHVESGVGLVQAVGSLRLSCAASGLTIDYNAMGWDRQAPVKERELVAAISWSGGSTYYADSLKGRFTISRDNAKNTVYLQMNSLKPEDNAVYYCNALPHIVIGGIICYEYWGQGTQVTVSS | high polyreactivity
QVQHVESRGGIVQAGGSLRLSCAASGFILYFNAMGWYRQAPGKERELVAAITSDGGSTYYADSVKGRFTISRDNAKNTVYLQMNSLKPEDTAVYYCAADASTWYTEEYWGQGTQVTVSS | low polyreactivity
QVQHVESRGGLLQAGGSLRLSCAASGRTLSFYGMGWYRQPPGKERELVAAISSSGSRTYYADSVKGRFTISRDNAKNTVYLQMNSLKPEHTAVYYCNALRIYHHYEYDYWGQGTQVTVSS | high polyreactivity
QVQHVESRGGLVQAGGSLRLSCAASGLILSGYTMGWYRPAPGKERELVAAISRSGGSTYYADSVKGRFTISRDNAKNTVYLQMNSLKPEDTAVYYCAKVPIYRYGVWAMNYWGQGTQVTVSS | high polyreactivity
QVQHVESRGGLVQAGGSLRLSCDASGSTFVTYAMGWYRQAPGKERELVAAISRSGGSTYYADSVKGRFTISRDNAKNTVYLQMNSLKPEDTAVYYCAARDGYGATGHDYWGQGTQVTVSS | low polyreactivity
QVQHVESVGCLVQAGGTLRLSCASSVRTFLWYTMGWYRQAPGKKRELVATITSGGRTNYADSVKGRFTISRDNAKNTVYLQMNSLNPEDTAVYYCARLGAYTGRYDYWGQGTQVTVSS | high polyreactivity
QVQHVESVGGLVQAGGRLRLSSAASGSIFSYNAMGWYRQAPVKERQLVARITRGGDGTYYADSVMVRFTISRDNAKNTVYLQMNSLKPEDTAVYYCAGTPYWYHLRVEGGYWGQGTQVTVSS | low polyreactivity
QVQHVESVGGLVQAGGSLRLSCAASGSTFARYVMGWYRQAPGKEWELVAVISRSGGSTYYADSVKGRFTISRDNAKNTVYLQMNSLKPEDTAVYYCNARSSNYWWYYYWGQGTQVTVSS | high polyreactivity
QVQHVESWGGIVQARGSLRLSCAASGSTFSYNALGWYRQPPGKERELVAALTCSGASTYYAYSVKGRFTISRDKAKNTVYLQLSSMNPDDTAVYYCNAPDGPGPNAYYEFDYWGQGTQVTVSS | low polyreactivity
QVQHVQTLGGLDQAGGSLRLSFSDSGSNFGYYSIVLYRLAPGKERELVAAITGSGGGTYYADSVKGRLTISRDNAKNTVYLQMNSLKPEDTAVYYCAKDRNYRIYWGEYWGHGTQVTVSS | low polyreactivity
QVQIEESGGGLVQAGGSLRLSCAASGFIFRPYAMGWYRQAPGKERELVAAITGGGSTYYADSVKGRFTISRDNAKNTVYLQMISLKPEDTAVYYCNADRRRRSGGFAGWHFQRNDYWGQGTQVTVSS | low polyreactivity
QVQIEESGGGLVQAGGSLRLSCAASGRTFYANVMGWSRQAPGIEWELVAAITYSGGSTYYADSVKGRFTISRDNAQNTVYVLMNCLKQEDTADYYCAADNVYTFYYWGQGTLVTVSS | low polyreactivity
QVQIEESGGGLVQAGGSLRLSCAASGSTFGINAMGWSRQAPGKERELVAAISSRGGSTYYADSVKGRFTISRDNAQNTVYLQMNSLKPADTALYSCNRRGWSRTHQYDYWGQGTQVTVSS | high polyreactivity
QVQIGESGGGLVQAGGSLRLSCAASGRTFGLYAMGWYRQAPGKERELVAAITISGGITHYADSVKGRFTISRDIAKNSVYLQMNSLKPEDTAVYYCAAEPPGFRTSGVGYWGQGTQVTVSS | low polyreactivity
QVQIVDSGGGLVQAGGSLRISCAASGRIFAGYGKGWYRQAPGKERELVAAISSGGSTYYADSVKGRFTISRDNAKNTVYLQMNSLKPEDTAVYYCATDGQSVPDDYYQNVDYDYWGQGTQVTVSS | low polyreactivity
